# Measured values published in patent US20250051427A1, “METHODS OF USING AN ANTI-AMYLOID BETA PROTOFIBRIL ANTIBODY AND ANTI-TAU ANTIBODY” (published 2025).
# B1: E2814 (antibody, V domains shown)
# VH: EVQLLESGGGLVQPGGSLRLSCAASGYTFTTYWITWVRQAPGKGLEWVSDIYPGSSISNYNEKFKSRFTISVDNSKNTLYLQMNSLRAEDTAVYYCAREDGYDAWFAYWGQGTLVTVSS
# VL: DIQMTQSPSSLSASVGDRVTITCRSSQSILHSNGNTYLEWYQQKPGKAPKLLISKVSNRFSGVPSRFSGSGSGTDFTLTISSLQPEDFATYYCFQGSHVPFTFGQGTKLEIKR
# Key:
# [1] = biological target: T1, MTBR-tau (microtubule binding region tau) in CSF (Homo sapiens); assay: E2814-bound and free MTBR-tau in CSF after a single E2814 infusion of 3 mg/kg
# [2] = biological target: T1, MTBR-tau (microtubule binding region …); assay: E2814-bound and free MTBR-tau in CSF after a single E2814 infusion of 30 mg/kg
# [3] = biological target: T1, MTBR-tau (microtubule binding region …); assay: E2814-bound and free MTBR-tau in CSF after a single E2814 infusion of 10 mg/kg
binder,measurement,setting,value
B1,"target engagement (TE), fraction (%) of bound MTBR-tau relative to total MTBR-tau",[1],~26%
same,"target engagement (TE), fraction (%) of bound MTBR-tau relative to total MTBR-tau",[2],~60%
same,"target engagement (TE), fraction (%) of bound MTBR-tau relative to total MTBR-tau",[3],~45%
